Test results reported in patent US20220348651A1 (Novartis, published 2022).

How the values were obtained:
[1] = target: T1, recombinant cyno ENTPD2 extracellular domain (residues 29-462) with C-terminal Avi-His6 tag (cynomolgus macaque, UniProt Q9Y5L3 29-462 (human entry)); assay: SPR Biacore, mAb captured, ECD analyte, 25C
T1 construct: also called cynomologus (cyno) ENTPD2 ECD
T1 chain (part 1 of 2): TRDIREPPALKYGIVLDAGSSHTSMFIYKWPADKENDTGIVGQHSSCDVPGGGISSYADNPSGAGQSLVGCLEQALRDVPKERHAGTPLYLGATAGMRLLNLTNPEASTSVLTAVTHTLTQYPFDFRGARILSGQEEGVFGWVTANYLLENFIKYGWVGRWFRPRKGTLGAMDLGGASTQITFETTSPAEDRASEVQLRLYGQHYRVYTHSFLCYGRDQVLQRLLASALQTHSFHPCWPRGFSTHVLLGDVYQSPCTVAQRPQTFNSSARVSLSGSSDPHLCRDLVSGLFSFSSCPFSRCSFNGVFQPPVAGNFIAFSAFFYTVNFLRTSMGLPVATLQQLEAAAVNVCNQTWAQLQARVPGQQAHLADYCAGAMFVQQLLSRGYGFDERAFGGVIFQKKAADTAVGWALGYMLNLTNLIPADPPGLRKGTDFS
T1 chain (part 2 of 2): HHHHHH
Description: (§1) Biacore Screening: Affinity was measured by determining the kinetic rate constants using surface plasmon resonance (SPR) on a Biacore T200 or T100 with the T200 sensitivity upgrade instrument (Biacore, GE Healthcare). Antibodies were captured on CM5 sensor chips (Biacore, GE Healthcare) prepared with a mouse anti-human IgG Fc antibody (ThermoFisher catalogue #05-4200) amine coupled to the surface. […] ENTPD2 analytes were allowed to associate for 180 s and dissociate for up to 1800 s depending on the off-rate of the antibody at a flow rate of 30 μL/min. The running buffer was PBS pH 7.2 (prepared from a Corning 10X stock, cat#46-013-CM)+0.05% Tween 20. […] The raw data were analyzed using Biacore T200 Evaluation Software version 1.0 and fit to a 1:1 binding model, with all parameters set to fit globally except for RI, which was set to fit locally.

[2] = target: T2, recombinant human ENTPD2 extracellular domain (residues 29-462) with C-terminal Avi-His6 tag (human, UniProt Q9Y5L3 29-462, biotinylated on the AviTag in the epitope binning assay); assay: SPR Biacore, mAb captured, ECD analyte, 25C
T2 construct: also called human ENTPD2 ECD; Human ENTPD2-Avi-His6 protein
Description: as §1

[3] = target: T3, cyno ENTPD2 expressed on NIH/3T3 cells (cynomolgus macaque, UniProt Q9Y5L3 1-495 (human entry)); assay: flow cytometry, NIH3T3 cyno ENTPD2 cells
T3 construct: also called NIH3T3 cynoENTPD2; Cyno ENTPD2 NIH/3T3
T3 chain: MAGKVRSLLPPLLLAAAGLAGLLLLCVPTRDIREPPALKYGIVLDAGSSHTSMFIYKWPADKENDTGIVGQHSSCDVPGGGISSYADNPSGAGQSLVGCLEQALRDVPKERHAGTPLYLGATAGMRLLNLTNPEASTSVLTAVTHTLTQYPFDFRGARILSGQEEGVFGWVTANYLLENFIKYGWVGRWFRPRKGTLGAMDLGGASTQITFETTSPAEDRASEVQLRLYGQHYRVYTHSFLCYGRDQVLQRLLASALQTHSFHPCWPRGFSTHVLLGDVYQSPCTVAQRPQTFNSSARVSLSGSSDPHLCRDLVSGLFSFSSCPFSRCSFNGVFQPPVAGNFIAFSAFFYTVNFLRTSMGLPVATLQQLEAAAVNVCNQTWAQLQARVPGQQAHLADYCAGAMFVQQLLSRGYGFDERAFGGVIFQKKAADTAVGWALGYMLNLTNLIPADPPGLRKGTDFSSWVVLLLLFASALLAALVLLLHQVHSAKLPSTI

[4] = target: T4, human ENTPD2 expressed on cells (human, UniProt Q9Y5L3 1-495); assay: flow cytometry, NIH3T3 human ENTPD2 cells
T4 construct: full-length human ENTPD2 on engineered cells; also called NIH3T3 humanENTPD2; NIH/3T3-hENTPD2
T4 sequence: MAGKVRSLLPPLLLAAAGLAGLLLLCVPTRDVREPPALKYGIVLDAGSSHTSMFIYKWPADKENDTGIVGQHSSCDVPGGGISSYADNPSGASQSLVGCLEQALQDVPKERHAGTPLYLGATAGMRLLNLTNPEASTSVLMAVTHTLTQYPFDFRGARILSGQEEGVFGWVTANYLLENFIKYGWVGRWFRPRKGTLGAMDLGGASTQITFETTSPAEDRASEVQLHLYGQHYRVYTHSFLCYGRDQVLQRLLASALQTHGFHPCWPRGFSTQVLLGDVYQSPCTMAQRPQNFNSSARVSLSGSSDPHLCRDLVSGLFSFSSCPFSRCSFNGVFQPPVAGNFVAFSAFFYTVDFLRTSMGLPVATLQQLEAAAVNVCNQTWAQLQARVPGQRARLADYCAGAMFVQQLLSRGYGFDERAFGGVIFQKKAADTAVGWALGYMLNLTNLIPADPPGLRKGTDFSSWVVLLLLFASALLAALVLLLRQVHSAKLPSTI

[5] = target: T3, cyno ENTPD2 expressed on NIH/3T3 cells; assay: cell-based or functional assay
[6] = target: T4, human ENTPD2 expressed on cells; assay: cell-based or functional assay
[7] = target: T5, recombinant monomeric mouse ENTPD2 extracellular domain (residues 29-462) with His6 tag (mouse, UniProt O55026 29-462); assay: SPR Biacore
T5 sequence: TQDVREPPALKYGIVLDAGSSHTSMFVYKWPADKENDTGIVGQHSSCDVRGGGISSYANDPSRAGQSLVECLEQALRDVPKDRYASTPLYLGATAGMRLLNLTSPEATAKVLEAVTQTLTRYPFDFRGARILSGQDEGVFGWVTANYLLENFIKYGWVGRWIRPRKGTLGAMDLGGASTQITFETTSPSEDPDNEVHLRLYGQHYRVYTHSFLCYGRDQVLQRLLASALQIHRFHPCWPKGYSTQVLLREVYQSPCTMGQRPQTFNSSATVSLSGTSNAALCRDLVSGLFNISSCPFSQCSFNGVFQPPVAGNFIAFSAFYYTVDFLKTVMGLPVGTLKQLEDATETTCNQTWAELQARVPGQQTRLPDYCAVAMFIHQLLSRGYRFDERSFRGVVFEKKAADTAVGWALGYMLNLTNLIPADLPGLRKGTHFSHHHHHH

Row | Binder | Kd [1] [nM] | koff [1] [s⁻¹] | kon [1] [M⁻¹ s⁻¹] | Kd [2] [nM] | koff [2] [s⁻¹] | kon [2] [M⁻¹ s⁻¹] | EC50 [3] [nM] | EC50 [4] [nM] | % inhibition, Cyno ENTPD2 NIH/3T3 Assay [5] [%] | IC50, Cyno ENTPD2 NIH/3T3 Assay [5] [nM] | % inhibition, Human ENTPD2 NIH/3T3 Assay [6] [%] | % inhibition, RKO Assay [6] [%] | IC50, Human ENTPD2 NIH/3T3 Assay [6] [nM] | IC50, RKO Assay [6] [nM] | Kd [7] [nM] | binding result [7]
1 | ANTI-HUMAN ENTPD2 MAB9 (antibody, human IgG1, lambda, V domains shown, also called Anti-ENTPD2 mAb9) VH: QVQLVQSGAEVKKPGSSVKVSCKASGGTFDSYAVSWVRQAPGQGLEWMGRIVPWLGHTQYAQKFQGRVTITADESTSTAYMELSSLRSEDTAVYYCARESPGYRYSFDVWDQGTLVTVSS VL: SYELTQPLSVSVALGQTARITCSGDAIGEKYVYWYQQKPGQAPVLVIYDDNNRPSGIPERFSGSNSGNTATLTISRAQAGDEADYYCASYDLQQARWVFGGGTKLTVLG | 20.9 | 0.021 | 990000 | 0.9 | 0.0003 | 380000 | 1.3 | 0.6 | 71 | 0.3 | 92 | 70 | 0.3 | 0.1 | 750 | –
2 | ANTI-HUMAN ENTPD2 MAB10 (antibody, human IgG1, lambda, V domains shown, also called Anti-ENTPD2 mAb10) VH: QVQLVQSGAEVKKPGSSVKVSCKASGGTFDSYAVSWVRQAPGQGLEWMGRIVPWLGFTRYAQKFQGRVTITADESTSTAYMELSSLRSEDTAVYYCARESPGYRYSFDVWDQGTLVTVSS VL: SYELTQPLSVSVALGQTARITCSGDAIGEKYVYWYQQKPGQAPVLVIYDDNNRPSGIPERFSGSNSGNTATLTISRAQAGDEADYYCASYDLQQARWVFGGGTKLTVLG | 15.2 | 0.018 | 1.2e+06 | 0.8 | 0.00024 | 340000 | 1.7 | 0.8 | 86 | 0.5 | 88 | 77 | 0.4 | 0.2 | – | binds
3 | ANTI-HUMAN ENTPD2 MAB8 (antibody, human IgG1, lambda, V domains shown, also called Anti-ENTPD2 mAb8) VH: QVQLQQSGPGLVKPSQTLSLTCAISGDSVSSSSAAWNWIRQSPSRGLEWLGRIYYRSKWYNDYAVSVKSRITINPDTSKNQFSLQLNSVTPEDTAVYYCARGSYVTSSYEGFDYWGQGTLVTVSS VL: SYELTQPLSVSVALGQTARITCSGDNLPEKYAYWYQQKPGQAPVLVIYDDNKRPSGIPERFSGSNSGNTATLTISRAQAGDEADYYCQSYGKWGWTWVFGGGTKLTVLG | 81.1 | 0.024 | 300000 | 3.3 | 0.00094 | 290000 | 2.1 | 0.6 | 96 | 0.9 | 97 | 95 | 0.1 | 0.2 | – | binds
